Test results taken from US20240261333A1 (published 2024).

Key:
Test in all cases: co-IP, anti-FLAG, lysate of cells with N-FLAG B3GNT2; mass spectrometry
[1] = biological target: T1, MYH11 (human, UniProt P35749-3 1-1945, limits assumed)
T1 construct: also called NP_001035202.1 (+4)
Description: (§1) Cells were plated in 10-cm cell culture dishes and grown to 60-80% confluency. For each condition, two biological replicates were harvested for co-IP. Cells were washed with PBS and 4 mL of lysis buffer (20 mM HEPES, 1% Triton X-100, 150 mM NaCl, 1 mM EDTA, and 10% glycerol) containing protease inhibitor cocktail was added. Cells were scraped and lysate was incubated at 4° C. under rotary agitation for 1 h. Lysate was centrifuged at 14,000×g for 10 min at 4° C. Supernatant was transferred to a new tube and an aliquot was taken as the input. […] For Western blots, 10 μg/mL Chicken Anti-FLAG (Aves labs ET-DY100) and IgY control (R&D Systems AB-101-C) antibodies were biotinylated (Thermo Fisher Scientific 90407) and added to the respective conditions. Lysates with antibodies were incubated at 4° C. under rotary agitation overnight. For each mL of lysate, 50 μL of Pierce Protein A/G Magnetic Beads (Mass spectrometry; Thermo Fisher Scientific 88803) or Pierce Streptavidin Magnetic Beads (Western blot; Thermo Fisher Scientific 88817) was washed twice with lysis buffer. Lysates with antibodies were added to the beads and incubated at 4° C. under rotary agitation for 4 h. Beads were washed with lysis buffer 3 times and resuspended in lysis buffer for storage.
(§2) Magnetic beads were resuspended in 100 mM Tris pH 7.8, reduced, alkylated and digested with trypsin at 37° ° C. overnight. This solution was subjected to solid phase extraction to concentrate the peptides and remove unwanted reagents followed by injection onto a Shimadzu HPLC with fraction collector. Eight fractions were collected and after concentration were injected on a Waters NanoAcquity HPLC equipped with a self-packed Aeris 3 μm C18 analytical column 0.075 mm by 20 cm, (Phenomenex). Peptides were eluted using standard reverse-phase gradients. The effluent from the column was analyzed using a Thermo Orbitrap Elite mass spectrometer (nanospray configuration) operated in a data dependent manner for 54 minutes. The resulting fragmentation spectra were correlated against the known database using Proteome Discover 1.4 (Thermo Fisher Scientific).

[2] = biological target: T2, UBAP2L (human, UniProt Q14157 1-1087)
T2 construct: also called NP_055662.3 (+3)
T2 sequence (looked up): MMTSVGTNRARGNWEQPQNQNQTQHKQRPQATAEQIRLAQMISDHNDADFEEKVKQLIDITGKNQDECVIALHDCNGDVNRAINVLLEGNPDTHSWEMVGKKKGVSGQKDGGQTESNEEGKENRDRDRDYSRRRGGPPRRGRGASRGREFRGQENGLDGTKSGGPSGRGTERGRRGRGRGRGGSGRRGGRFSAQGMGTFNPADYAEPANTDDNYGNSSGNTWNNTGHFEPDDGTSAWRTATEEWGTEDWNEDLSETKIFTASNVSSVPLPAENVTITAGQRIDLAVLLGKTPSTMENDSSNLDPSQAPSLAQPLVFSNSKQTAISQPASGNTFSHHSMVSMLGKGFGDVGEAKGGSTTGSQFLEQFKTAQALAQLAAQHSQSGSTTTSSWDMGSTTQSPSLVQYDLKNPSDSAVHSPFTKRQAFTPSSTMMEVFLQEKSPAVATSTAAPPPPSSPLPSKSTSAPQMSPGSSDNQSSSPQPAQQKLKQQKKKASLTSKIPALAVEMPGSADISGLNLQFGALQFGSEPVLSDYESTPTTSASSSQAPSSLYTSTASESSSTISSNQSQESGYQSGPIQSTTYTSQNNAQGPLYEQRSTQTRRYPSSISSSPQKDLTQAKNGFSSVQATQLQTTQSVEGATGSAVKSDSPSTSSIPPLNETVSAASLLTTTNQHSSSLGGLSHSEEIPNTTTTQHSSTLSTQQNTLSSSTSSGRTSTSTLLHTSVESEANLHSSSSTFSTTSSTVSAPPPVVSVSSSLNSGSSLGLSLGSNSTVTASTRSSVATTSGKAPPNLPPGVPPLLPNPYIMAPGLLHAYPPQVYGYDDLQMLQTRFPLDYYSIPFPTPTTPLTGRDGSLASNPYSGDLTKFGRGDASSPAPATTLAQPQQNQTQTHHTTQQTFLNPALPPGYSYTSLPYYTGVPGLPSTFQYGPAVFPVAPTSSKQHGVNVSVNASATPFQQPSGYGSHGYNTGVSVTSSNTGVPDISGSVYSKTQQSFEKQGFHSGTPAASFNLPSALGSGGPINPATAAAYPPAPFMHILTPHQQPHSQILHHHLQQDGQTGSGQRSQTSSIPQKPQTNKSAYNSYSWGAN
Description: as §1, §2

[3] = biological target: T3, HNRNPA2B1 (human, UniProt P22626-2 1-341)
T3 construct: also called NP_002128.1 (+1)
T3 sequence (P22626 other isoform, or with tags, fused parts or gaps limits assumed): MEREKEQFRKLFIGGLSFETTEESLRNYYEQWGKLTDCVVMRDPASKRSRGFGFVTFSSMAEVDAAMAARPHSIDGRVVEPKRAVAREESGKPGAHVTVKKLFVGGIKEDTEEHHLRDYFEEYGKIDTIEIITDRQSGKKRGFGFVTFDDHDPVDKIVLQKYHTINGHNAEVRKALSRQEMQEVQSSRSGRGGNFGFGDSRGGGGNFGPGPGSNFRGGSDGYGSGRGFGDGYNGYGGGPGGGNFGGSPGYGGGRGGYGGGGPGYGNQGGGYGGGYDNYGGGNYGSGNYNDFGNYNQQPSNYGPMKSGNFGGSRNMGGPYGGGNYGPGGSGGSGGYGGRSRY
Description: as §1, §2

[4] = biological target: T4, FUBP3 (human, UniProt Q96I24 2-572)
T4 construct: also called NP_003925.1 (+2)
T4 sequence (looked up): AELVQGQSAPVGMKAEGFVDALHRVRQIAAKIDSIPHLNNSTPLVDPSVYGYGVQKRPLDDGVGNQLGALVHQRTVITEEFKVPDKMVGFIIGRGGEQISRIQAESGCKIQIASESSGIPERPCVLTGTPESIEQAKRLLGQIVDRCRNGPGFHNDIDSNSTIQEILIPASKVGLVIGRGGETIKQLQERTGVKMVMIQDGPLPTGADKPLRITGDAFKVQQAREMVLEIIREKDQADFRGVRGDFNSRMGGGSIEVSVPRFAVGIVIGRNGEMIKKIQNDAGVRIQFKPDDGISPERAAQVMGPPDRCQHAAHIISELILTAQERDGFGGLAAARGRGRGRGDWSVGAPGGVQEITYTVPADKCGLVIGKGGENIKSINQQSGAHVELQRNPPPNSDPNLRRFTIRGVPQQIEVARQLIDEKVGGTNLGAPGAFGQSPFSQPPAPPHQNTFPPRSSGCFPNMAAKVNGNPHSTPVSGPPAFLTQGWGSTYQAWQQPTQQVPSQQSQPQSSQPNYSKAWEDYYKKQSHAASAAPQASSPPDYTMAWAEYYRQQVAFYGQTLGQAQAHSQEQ
Description: as §1, §2

[5] = biological target: T5, G3BP1 (human, UniProt Q13283 2-466)
T5 construct: also called NP_005745.1
T5 sequence (Q13283 2-466 limits assumed): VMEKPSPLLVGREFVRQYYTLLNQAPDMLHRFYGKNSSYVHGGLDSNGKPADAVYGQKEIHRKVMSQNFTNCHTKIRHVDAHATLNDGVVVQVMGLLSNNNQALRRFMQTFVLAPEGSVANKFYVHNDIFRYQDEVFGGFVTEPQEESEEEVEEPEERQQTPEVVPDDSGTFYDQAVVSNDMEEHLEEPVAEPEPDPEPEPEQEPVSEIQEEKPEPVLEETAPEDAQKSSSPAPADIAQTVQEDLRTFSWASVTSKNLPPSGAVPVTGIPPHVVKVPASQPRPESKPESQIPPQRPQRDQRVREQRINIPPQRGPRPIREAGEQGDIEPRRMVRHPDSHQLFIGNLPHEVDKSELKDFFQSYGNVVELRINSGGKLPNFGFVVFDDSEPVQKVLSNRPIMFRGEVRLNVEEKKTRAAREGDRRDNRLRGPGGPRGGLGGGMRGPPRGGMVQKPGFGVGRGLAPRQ
Description: as §1, §2

[6] = biological target: T6, LSM12 (human, UniProt Q3MHD2 2-195)
T6 construct: also called NP_689557.1
T6 sequence (Q3MHD2 2-195 limits assumed): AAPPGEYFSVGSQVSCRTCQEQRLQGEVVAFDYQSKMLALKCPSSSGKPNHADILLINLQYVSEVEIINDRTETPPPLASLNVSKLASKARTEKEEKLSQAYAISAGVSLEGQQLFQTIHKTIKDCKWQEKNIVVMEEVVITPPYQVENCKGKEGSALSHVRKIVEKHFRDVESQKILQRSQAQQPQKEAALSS
Description: as §1, §2

T1 sequence (P35749 other isoform, or with tags, fused parts or gaps limits assumed): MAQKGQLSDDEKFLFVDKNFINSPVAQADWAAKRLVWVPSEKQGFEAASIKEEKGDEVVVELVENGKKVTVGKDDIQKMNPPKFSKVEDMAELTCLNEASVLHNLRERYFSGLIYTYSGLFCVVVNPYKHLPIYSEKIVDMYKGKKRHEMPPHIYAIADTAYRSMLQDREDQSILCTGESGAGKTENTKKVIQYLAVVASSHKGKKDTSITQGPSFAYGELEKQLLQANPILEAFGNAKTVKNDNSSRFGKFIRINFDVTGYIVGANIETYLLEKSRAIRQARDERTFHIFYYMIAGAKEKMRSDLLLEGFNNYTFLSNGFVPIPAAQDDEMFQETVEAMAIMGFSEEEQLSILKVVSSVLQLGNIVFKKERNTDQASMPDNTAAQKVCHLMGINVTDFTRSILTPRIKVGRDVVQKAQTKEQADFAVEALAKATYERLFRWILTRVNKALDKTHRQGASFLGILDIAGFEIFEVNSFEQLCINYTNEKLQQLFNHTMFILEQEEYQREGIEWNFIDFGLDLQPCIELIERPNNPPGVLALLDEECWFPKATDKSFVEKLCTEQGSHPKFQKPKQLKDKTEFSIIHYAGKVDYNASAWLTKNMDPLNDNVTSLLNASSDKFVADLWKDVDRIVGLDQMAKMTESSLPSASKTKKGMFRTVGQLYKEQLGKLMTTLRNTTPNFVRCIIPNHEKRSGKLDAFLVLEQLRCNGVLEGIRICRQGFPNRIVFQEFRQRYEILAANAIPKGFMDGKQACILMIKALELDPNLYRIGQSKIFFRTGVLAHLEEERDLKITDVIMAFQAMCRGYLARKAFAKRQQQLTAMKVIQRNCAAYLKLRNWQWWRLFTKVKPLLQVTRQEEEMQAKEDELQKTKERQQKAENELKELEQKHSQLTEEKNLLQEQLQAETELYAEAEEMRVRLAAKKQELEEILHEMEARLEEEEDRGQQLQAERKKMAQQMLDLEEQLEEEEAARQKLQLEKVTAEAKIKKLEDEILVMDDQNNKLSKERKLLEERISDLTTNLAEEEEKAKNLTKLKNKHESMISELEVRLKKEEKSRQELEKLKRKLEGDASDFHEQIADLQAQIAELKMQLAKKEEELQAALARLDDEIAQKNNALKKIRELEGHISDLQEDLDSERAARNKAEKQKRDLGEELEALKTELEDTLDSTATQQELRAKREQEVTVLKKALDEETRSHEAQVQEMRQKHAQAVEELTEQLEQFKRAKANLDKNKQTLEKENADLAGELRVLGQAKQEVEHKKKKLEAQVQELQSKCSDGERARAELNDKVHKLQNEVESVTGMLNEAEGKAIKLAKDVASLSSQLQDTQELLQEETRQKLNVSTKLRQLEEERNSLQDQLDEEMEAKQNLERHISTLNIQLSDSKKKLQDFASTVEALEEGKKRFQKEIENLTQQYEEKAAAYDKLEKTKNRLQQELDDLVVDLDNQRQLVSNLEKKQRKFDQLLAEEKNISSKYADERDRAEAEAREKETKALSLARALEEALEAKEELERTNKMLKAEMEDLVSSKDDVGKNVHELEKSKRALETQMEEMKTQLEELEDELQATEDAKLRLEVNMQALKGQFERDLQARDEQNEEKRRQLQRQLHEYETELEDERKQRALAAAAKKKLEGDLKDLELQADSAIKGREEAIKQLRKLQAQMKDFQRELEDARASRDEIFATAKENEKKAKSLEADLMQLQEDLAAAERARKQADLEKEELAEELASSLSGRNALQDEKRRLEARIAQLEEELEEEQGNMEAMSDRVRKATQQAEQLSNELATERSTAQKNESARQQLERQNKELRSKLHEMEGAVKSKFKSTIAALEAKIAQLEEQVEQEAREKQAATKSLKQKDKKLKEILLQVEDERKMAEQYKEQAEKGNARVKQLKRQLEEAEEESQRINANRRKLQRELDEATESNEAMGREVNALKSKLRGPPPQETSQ

- co-IP mass spectrometry count [1]: 2
- co-IP mass spectrometry count [2]: 20
- co-IP mass spectrometry count [3]: 7
- co-IP mass spectrometry count [4]: 8
- co-IP mass spectrometry count [5]: 27
- co-IP mass spectrometry count [6]: 4
B1: N-terminal FLAG tagged B3GNT2 (enzyme, human, UniProt Q9NY97 1-397, looked up)
chain: MSVGRRRIKLLGILMMANVFIYFIMEVSKSSSQEKNGKGEVIIPKEKFWKISTPPEAYWNREQEKLNRQYNPILSMLTNQTGEAGRLSNISHLNYCEPDLRVTSVVTGFNNLPDRFKDFLLYLRCRNYSLLIDQPDKCAKKPFLLLAIKSLTPHFARRQAIRESWGQESNAGNQTVVRVFLLGQTPPEDNHPDLSDMLKFESEKHQDILMWNYRDTFFNLSLKEVLFLRWVSTSCPDTEFVFKGDDDVFVNTHHILNYLNSLSKTKAKDLFIGDVIHNAGPHRDKKLKYYIPEVVYSGLYPPYAGGGGFLYSGHLALRLYHITDQVHLYPIDDVYTGMCLQKLGLVPEKHKGFRTFDIEEKNKNNICSYVDLMLVHSRKPQEMIDIWSQLQSAHLKC
notes: Overexpressed in cells and pulled down from the lysate with mouse anti-FLAG antibody; also called N-FLAG B3GNT2; N-term FLAG; not shown: N-terminal FLAG tag
